The source of these data is article doi:10.1101/2024.03.25.586624.

Test [1] has as its target synthetic sfGFP peptide, peptide variant 14. The test is described as follows: AlphaScreen or HTRF.
Test [2] concerns the target synthetic sfGFP peptide, peptide variant 9. In words: AlphaScreen or HTRF.

Substance “MBP-TbtF RRE domain (domain or fragment)” registered a fold of the AlphaLISA signal of the wild-type TbtA leader sequence in test [1] of 2 fold. The substance further returned an AlphaLISA signal, percent of the wild-type TbtA leader sequence in test [2] of 25%.
